The source of these data is the supplement of paper PMC10567573.

The labels stand for the following.
B1: PDS5B (parent)
chain: IYKKYALQSAAGKDAAKQIAWIKD
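Further: lentivirally expressed fusions sorted by FACS into six bins by GFP to DsRed ratio, PSI derived from sequencing read proportions per bin multiplied by bin number.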

In the data set the parent is B1. The experiment in a line: protein stability index of a GFP-peptide fusion (GPS, HEK-293T) (PSI 1-6); higher = more stable. The conditions noted are these: c terminus: a fixed tail appended.
Take IYIKYALQSAAGKDAAKQIAWIKD [K3I]: the protein stability index is 2.93. For the variant IYLKYALQSAAGKDAAKQIAWIKD [K3L], the protein stability index came to 2.4. With IYFKYALQSAAGKDAAKQIAWIKD [K3F], the protein stability index was 2.15. For IYWKYALQSAAGKDAAKQIAWIKD [K3W] the value was 2.95; for IYCKYALQSAAGKDAAKQIAWIKD [K3C], 1.51. In the case of IYKRYALQSAAGKDAAKQIAWIKD [K4R], the protein stability index is 2.25. Regarding IYKNYALQSAAGKDAAKQIAWIKD [K4N], the protein stability index is 2.68. With IYKVYALQSAAGKDAAKQIAWIKD [K4V], the protein stability index amounted to 1.55. With IYKMYALQSAAGKDAAKQIAWIKD [K4M], the protein stability index was 1.95. The same measure for IYKAYALQSAAGKDAAKQIAWIKD [K4A]: 2.13; for IYKGYALQSAAGKDAAKQIAWIKD [K4G]: 2.61; for IYKPYALQSAAGKDAAKQIAWIKD [K4P]: 2.71.

As to IYKTYALQSAAGKDAAKQIAWIKD [K4T], the protein stability index is 2.7. IYKLYALQSAAGKDAAKQIAWIKD [K4L]: the protein stability index was 1.75.

In the case of IYKIYALQSAAGKDAAKQIAWIKD [K4I], the protein stability index turned out to be 2.44. The same measure for IYKDYALQSAAGKDAAKQIAWIKD [K4D]: 3.24.

Take IYKHYALQSAAGKDAAKQIAWIKD [K4H]: the protein stability index is 2.39. With IYKEYALQSAAGKDAAKQIAWIKD [K4E], the protein stability index is 2.68.

For IYKYYALQSAAGKDAAKQIAWIKD [K4Y], the protein stability index came to 1.84. For the variant IYKFYALQSAAGKDAAKQIAWIKD [K4F], the protein stability index turned out to be 2.32. In the case of IYKWYALQSAAGKDAAKQIAWIKD [K4W], the protein stability index was 1.35. Consider IYKQYALQSAAGKDAAKQIAWIKD [K4Q], for which the protein stability index stood at 2.6. For IYKSYALQSAAGKDAAKQIAWIKD [K4S], the protein stability index was 2.23. IYKCYALQSAAGKDAAKQIAWIKD [K4C]: the protein stability index was 1.61.

Take IYKKYAHQSAAGKDAAKQIAWIKD [L7H]: the protein stability index was found to be 2.6.

Take IYKKYAEQSAAGKDAAKQIAWIKD [L7E]: the protein stability index amounted to 2.76.

As for IYKKYAQQSAAGKDAAKQIAWIKD [L7Q], the protein stability index was 3.06.

As to IYKKYAVQSAAGKDAAKQIAWIKD [L7V], the protein stability index worked out at 2.32. On to IYKKYAYQSAAGKDAAKQIAWIKD [L7Y], for which the protein stability index turned out to be 2.04. Regarding IYKKYAKQSAAGKDAAKQIAWIKD [L7K], the protein stability index worked out at 2.55.

With IYKKYAPQSAAGKDAAKQIAWIKD [L7P], the protein stability index amounted to 2.92. With IYKKYADQSAAGKDAAKQIAWIKD [L7D], the protein stability index came out at 3.16.

Regarding IYKKYACQSAAGKDAAKQIAWIKD [L7C], the protein stability index amounted to 1.93.

For the variant IYKKYANQSAAGKDAAKQIAWIKD [L7N], the protein stability index stood at 2.81. On to IYKKYAIQSAAGKDAAKQIAWIKD [L7I], for which the protein stability index turned out to be 1.95. Regarding IYKKYAAQSAAGKDAAKQIAWIKD [L7A], the protein stability index amounted to 2.5. Take IYKKYATQSAAGKDAAKQIAWIKD [L7T]: the protein stability index is 2.63. For IYKKYAWQSAAGKDAAKQIAWIKD [L7W], the protein stability index was 1.69. As to IYKKYARQSAAGKDAAKQIAWIKD [L7R], the protein stability index was determined as 2.3.

For IYKKYAGQSAAGKDAAKQIAWIKD [L7G], the protein stability index came to 2.42.

For the variant IYKKYASQSAAGKDAAKQIAWIKD [L7S], the protein stability index is 2.68.

Turning to IYKKYAMQSAAGKDAAKQIAWIKD [L7M], the protein stability index was 2.32. Take IYKKYAFQSAAGKDAAKQIAWIKD [L7F]: the protein stability index came to 1.68. For IYKKYALCSAAGKDAAKQIAWIKD [Q8C], the protein stability index came to 1.29. For IYKKYALKSAAGKDAAKQIAWIKD [Q8K] the value was 2.35.

IYKKYALHSAAGKDAAKQIAWIKD [Q8H]: the protein stability index was 1.83. The same measure for IYKKYALPSAAGKDAAKQIAWIKD [Q8P]: 2.72. As to IYKKYALISAAGKDAAKQIAWIKD [Q8I], the protein stability index came to 2.7. Take IYKKYALNSAAGKDAAKQIAWIKD [Q8N]: the protein stability index turned out to be 2.06.

As for IYKKYALLSAAGKDAAKQIAWIKD [Q8L], the protein stability index amounted to 1.85. Consider IYKKYALMSAAGKDAAKQIAWIKD [Q8M], for which the protein stability index is 2.06. For IYKKYALFSAAGKDAAKQIAWIKD [Q8F] the value was 3.35.

Take IYKKYALGSAAGKDAAKQIAWIKD [Q8G]: the protein stability index was 2.01.

As to IYKKYALESAAGKDAAKQIAWIKD [Q8E], the protein stability index worked out at 2.67. With IYKKYALASAAGKDAAKQIAWIKD [Q8A], the protein stability index was determined as 2.4. Turning to IYKKYALDSAAGKDAAKQIAWIKD [Q8D], the protein stability index was found to be 2.27. Regarding ISKKYALQSAAGKDAAKQIAWIKD [Y2S], the protein stability index was 2.84. On to IDKKYALQSAAGKDAAKQIAWIKD [Y2D], for which the protein stability index was found to be 3.75. As to ILKKYALQSAAGKDAAKQIAWIKD [Y2L], the protein stability index came to 2.34. On to IPKKYALQSAAGKDAAKQIAWIKD [Y2P], for which the protein stability index is 3.19. Take IQKKYALQSAAGKDAAKQIAWIKD [Y2Q]: the protein stability index worked out at 2.5. Take ITKKYALQSAAGKDAAKQIAWIKD [Y2T]: the protein stability index amounted to 2.98. As to ICKKYALQSAAGKDAAKQIAWIKD [Y2C], the protein stability index stood at 2.96.

IEKKYALQSAAGKDAAKQIAWIKD [Y2E]: the protein stability index stood at 3.9. INKKYALQSAAGKDAAKQIAWIKD [Y2N]: the protein stability index turned out to be 2.98. Take IAKKYALQSAAGKDAAKQIAWIKD [Y2A]: the protein stability index was found to be 2.32. As to IIKKYALQSAAGKDAAKQIAWIKD [Y2I], the protein stability index is 1.77. In the case of IRKKYALQSAAGKDAAKQIAWIKD [Y2R], the protein stability index was 2.38. Take IWKKYALQSAAGKDAAKQIAWIKD [Y2W]: the protein stability index was 2.32. As to IKKKYALQSAAGKDAAKQIAWIKD [Y2K], the protein stability index is 2.87. The same measure for IGKKYALQSAAGKDAAKQIAWIKD [Y2G]: 3.38; for IHKKYALQSAAGKDAAKQIAWIKD [Y2H]: 3.02. As for IFKKYALQSAAGKDAAKQIAWIKD [Y2F], the protein stability index worked out at 1.67. Take IVKKYALQSAAGKDAAKQIAWIKD [Y2V]: the protein stability index is 2.27. For the variant IMKKYALQSAAGKDAAKQIAWIKD [Y2M], the protein stability index is 4.12. The same measure for IYKKWALQSAAGKDAAKQIAWIKD [Y5W]: 1.98. Consider IYKKRALQSAAGKDAAKQIAWIKD [Y5R], for which the protein stability index came to 2.43. As to IYKKTALQSAAGKDAAKQIAWIKD [Y5T], the protein stability index amounted to 3.36. Take IYKKMALQSAAGKDAAKQIAWIKD [Y5M]: the protein stability index turned out to be 1.91. For IYKKKALQSAAGKDAAKQIAWIKD [Y5K] the value was 2.93; for IYKKDALQSAAGKDAAKQIAWIKD [Y5D], 3.79; for IYKKQALQSAAGKDAAKQIAWIKD [Y5Q], 2.99. Take IYKKAALQSAAGKDAAKQIAWIKD [Y5A]: the protein stability index amounted to 2.78.

In the case of IYKKGALQSAAGKDAAKQIAWIKD [Y5G], the protein stability index stood at 2.82. The same measure for IYKKVALQSAAGKDAAKQIAWIKD [Y5V]: 2.89. The same measure for IYKKPALQSAAGKDAAKQIAWIKD [Y5P]: 3.63; for IYKKLALQSAAGKDAAKQIAWIKD [Y5L]: 2.36; for IYKKCALQSAAGKDAAKQIAWIKD [Y5C]: 1.75. For IYKKFALQSAAGKDAAKQIAWIKD [Y5F], the protein stability index was determined as 1.92. IYKKNALQSAAGKDAAKQIAWIKD [Y5N]: the protein stability index was 2.93. On to IYKKHALQSAAGKDAAKQIAWIKD [Y5H], for which the protein stability index stood at 2.46. As for IYKKIALQSAAGKDAAKQIAWIKD [Y5I], the protein stability index came to 2.26.

As for IYKKSALQSAAGKDAAKQIAWIKD [Y5S], the protein stability index is 2.65. For the variant IYKKEALQSAAGKDAAKQIAWIKD [Y5E], the protein stability index is 3.09.
